# Assay results: patent US20190309079A1 (Regeneron, published 2019)
# T1: LEPR-P316T (signaling-impaired mutant) on HEK293 reporter cells (human, UniProt P48357 22-1165)
# T1 sequence: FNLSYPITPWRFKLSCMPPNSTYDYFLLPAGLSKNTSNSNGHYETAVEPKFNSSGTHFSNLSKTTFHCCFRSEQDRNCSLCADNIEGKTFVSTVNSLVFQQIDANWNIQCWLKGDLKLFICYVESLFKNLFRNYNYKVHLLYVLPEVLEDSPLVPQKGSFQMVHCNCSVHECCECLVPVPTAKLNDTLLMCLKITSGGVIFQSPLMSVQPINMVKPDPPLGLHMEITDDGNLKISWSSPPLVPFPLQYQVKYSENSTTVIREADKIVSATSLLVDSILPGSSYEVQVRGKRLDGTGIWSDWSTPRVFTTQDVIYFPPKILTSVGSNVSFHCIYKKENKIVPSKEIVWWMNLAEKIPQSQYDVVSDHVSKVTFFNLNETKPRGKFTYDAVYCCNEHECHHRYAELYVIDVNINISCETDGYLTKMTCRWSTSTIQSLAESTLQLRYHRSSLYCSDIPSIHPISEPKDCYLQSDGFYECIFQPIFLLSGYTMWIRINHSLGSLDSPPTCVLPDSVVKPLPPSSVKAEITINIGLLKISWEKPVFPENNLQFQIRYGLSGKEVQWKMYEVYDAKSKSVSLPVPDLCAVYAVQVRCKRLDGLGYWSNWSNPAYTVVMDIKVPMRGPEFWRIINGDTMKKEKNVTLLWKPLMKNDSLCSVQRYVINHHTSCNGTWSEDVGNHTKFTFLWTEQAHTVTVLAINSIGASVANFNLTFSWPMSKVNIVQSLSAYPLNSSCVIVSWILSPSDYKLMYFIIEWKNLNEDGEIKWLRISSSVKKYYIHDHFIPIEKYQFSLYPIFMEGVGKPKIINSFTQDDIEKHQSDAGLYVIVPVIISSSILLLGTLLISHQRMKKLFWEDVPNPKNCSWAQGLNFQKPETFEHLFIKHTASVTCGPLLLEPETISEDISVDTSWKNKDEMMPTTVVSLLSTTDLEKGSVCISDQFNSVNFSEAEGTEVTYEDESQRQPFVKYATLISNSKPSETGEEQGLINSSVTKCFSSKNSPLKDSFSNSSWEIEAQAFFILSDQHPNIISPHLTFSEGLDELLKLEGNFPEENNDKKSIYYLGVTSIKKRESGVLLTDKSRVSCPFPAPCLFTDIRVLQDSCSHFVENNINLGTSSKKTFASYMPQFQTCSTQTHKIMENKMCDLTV
# T2: wild-type LEPR on HEK293 reporter cells (UniProt P48357 22-1165, limits assumed)
# T2 sequence (looked up): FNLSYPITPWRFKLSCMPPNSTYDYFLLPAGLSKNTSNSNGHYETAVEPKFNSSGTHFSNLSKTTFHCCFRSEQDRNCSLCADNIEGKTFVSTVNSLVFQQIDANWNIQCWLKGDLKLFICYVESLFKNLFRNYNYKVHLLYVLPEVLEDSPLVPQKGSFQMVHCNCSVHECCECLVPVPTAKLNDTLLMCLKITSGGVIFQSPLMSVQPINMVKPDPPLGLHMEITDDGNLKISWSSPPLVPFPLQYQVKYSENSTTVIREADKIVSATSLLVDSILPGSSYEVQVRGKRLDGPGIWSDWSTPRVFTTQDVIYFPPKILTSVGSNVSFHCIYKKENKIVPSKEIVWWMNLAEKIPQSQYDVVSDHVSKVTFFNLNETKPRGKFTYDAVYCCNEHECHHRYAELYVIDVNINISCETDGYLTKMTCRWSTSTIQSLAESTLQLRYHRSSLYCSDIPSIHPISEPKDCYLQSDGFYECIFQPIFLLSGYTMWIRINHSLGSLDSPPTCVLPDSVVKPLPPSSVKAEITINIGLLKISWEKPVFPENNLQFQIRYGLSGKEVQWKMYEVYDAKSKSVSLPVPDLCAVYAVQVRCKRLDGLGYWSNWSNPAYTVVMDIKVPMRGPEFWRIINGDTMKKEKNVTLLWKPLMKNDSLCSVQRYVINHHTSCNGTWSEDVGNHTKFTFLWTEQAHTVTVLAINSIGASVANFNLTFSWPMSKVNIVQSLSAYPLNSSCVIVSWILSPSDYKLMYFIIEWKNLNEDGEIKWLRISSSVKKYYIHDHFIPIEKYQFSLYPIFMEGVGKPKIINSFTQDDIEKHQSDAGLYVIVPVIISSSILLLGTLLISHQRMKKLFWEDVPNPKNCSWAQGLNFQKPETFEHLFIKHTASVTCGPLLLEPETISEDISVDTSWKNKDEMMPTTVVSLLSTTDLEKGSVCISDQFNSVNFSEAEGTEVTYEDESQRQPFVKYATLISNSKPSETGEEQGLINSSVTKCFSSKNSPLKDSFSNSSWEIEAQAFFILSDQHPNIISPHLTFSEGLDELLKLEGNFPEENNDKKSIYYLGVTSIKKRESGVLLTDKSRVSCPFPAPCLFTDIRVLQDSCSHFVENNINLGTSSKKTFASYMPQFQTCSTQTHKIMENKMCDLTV
# B1: H4H16679P2 (antibody, V domains shown)
# VH: QVQLVESGGGVVQPGRSLRLSCTASGFTFSSYAMYWVRQAPGKGLEWVSVIYYDGSYKYYADSVKGRFTISRDNSKNTLYLQMDSLRAEDTAVYYCASYNWNYWYFDFWGRGTLVTVSS
# VL: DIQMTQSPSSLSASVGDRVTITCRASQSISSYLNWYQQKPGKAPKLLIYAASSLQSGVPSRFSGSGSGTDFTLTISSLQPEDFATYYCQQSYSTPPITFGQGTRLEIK
# How the values were obtained:
# [1] = target: T1, LEPR-P316T (signaling-impaired mutant) …; experiment: cell-based or functional assay
# [2] = target: T2, wild-type LEPR on HEK293 reporter cells; experiment: cell-based or functional assay
binder,measurement,setting,value
B1,"EC50 (read off the curve), pSTAT3 Y705/STAT3 densitometry",[1],~3e-10 M
same,"EC50 (read off the curve), pSTAT3 Y705/STAT3 densitometry",[2],~3e-10 M
